In US6319692:

System: phiFSW integrase (Int) (Lactobacillus casei temperate phage phiFSW)
Assay: cell_activity

Substance: attP (phiFSW)
- activity (transformants/ug DNA) (pMSK742 integration into YIT9029 chromosome via attP x attB, no transformants when int region deleted, attL and attR confirmed by PCR, Southern and sequencing): 1000

Substance: attB (L. casei YIT9029)
- activity (transformants/ug DNA) (chromosomal attB as integration site, attB lost and attL/attR formed in all analysed transformants, in vivo, no direct binding measured): 1000
